Laboratory results taken from patent publication US20180021429A1, “ANTICANCER AGENTS OR ANTIMETASTATIC AGENTS USING FSTL1 AND COMBINATION DRUG THEREOF” (PHARMA FOODS INTERNATIONAL CO., LTD., priority 2015, published 2018).
“Also recorded” adds a separate entry of the source.

System: induction of mesenchymal stem cells (MSCs) by FSTL1
Experiment: Inhibitory activity against induction of MSC by FSTL1, CD45-negative cells (Examples 6, 8, 12)
Type: cell-based, mouse
Conditions: Example 12, FIG. 7/37; FSTL1 20 ng/mL; antibody 10 μg/mL; 8 days
Protocol: (§1) Mouse bone marrow cells prepared in the same way as in Example 4 were supplemented with 50 ng/mL (final concentration) of FSTL1 and 10 μg/mL of the anti-FSTL1 antibody (#5-2, #5-3, #5-8, #5-10, 45-43, #6-55, or #7-34) or a control antibody anti-DNP antibody and cultured under stimulation. 11 days thereafter, the number of cells was counted while the cells were stained with a PE-Cy5-labeled anti-CD45 antibody (BD Pharmingen/Becton, Dickinson and Company, Cat. No. 555484), and the content of CD45-negative cells reported to generally contain MSCs at a high rate was analyzed by flow cytometry using FACScan to calculate the percentage and number of MSCs per culture (FIG. 5A).
(§2) Mouse bone marrow cells prepared in the same way as in Example 4 were supplemented with 20 ng/mL (final concentration) of FSTL1 and 10 μg/mL of the anti-FSTL1 antibody (#5-2, #5-3, #5-8, #5-10, #5-43, #6-55, #8-1, #8-4, #8-7, and #8-8) or a control antibody anti-DNP antibody and cultured under stimulation. 8 days thereafter, the number of cells was counted while the cells were stained with a PE-Cy5-labeled anti-CD45 antibody, and the content of CD45-negative cells was analyzed by flow cytometry using FACScan to calculate the percentage and number of MSCs per culture (FIG. 6A).
as §2, with “(#5-2,” for “(#5-2, #5-3,”, “#5-8,” for “#5-8, #5-10, #5-43,”, “#6-55, #7-34,” for “#6-55,”, “#8-7, or” for “#8-7, and”, “(FIG. 7).” for “(FIG. 6A).”
as §1, with “35A).” for “5A).”
as §2, with “36A).” for “6A).”
as §2, with “(#5-2,” for “(#5-2, #5-3,”, “#5-8,” for “#5-8, #5-10, #5-43,”, “#6-55, #7-34,” for “#6-55,”, “#8-7, or” for “#8-7, and”, “(FIG. 37).” for “(FIG. 6A).”

B1: #8-7: chicken-mouse chimeric anti-FSTL1 antibody clone; variable regions SEQ ID NO: 799 (light), 801 (heavy) (antibody, V domains shown)
VH: AVTLDESGGGLQTPGGGLSLVCKGSGFTFSSFNMFWVRQAPGKGLEWVAGIGKDGVPKYGAAVDGRATISKDNGQSTLRLQLNNLRAEDTGTYFCAKAAGGCSYDWCGIYAGDIDTWGHGTEVIVSS
VL: ASTQPSSVSANPGEAVKITCSGGSGSYYGWYQQKSPGSAPVTVIYNNNQRPSDIPSRFSGSKSGSTATLTITGVQAEDEAVYFCGGYDSSTGHGGIFGAGTTLTVL
modifications: mouse constant regions
- inhibitory activity against the expansion of CD45-negative cells by FSTL1: higher inhibitory activity was confirmed in the order of #7-34, #5-2, #6-55, and #8-7; also recorded: stronger inhibitory activity was confirmed in the order of clone #7-34, #5-2, 46-55, and #8-7
